Test results reported in US20210130436A1 (published 2021).

T1: CD226 (Homo sapiens (Human), UniProt Q15762 19-336)
T1 sequence: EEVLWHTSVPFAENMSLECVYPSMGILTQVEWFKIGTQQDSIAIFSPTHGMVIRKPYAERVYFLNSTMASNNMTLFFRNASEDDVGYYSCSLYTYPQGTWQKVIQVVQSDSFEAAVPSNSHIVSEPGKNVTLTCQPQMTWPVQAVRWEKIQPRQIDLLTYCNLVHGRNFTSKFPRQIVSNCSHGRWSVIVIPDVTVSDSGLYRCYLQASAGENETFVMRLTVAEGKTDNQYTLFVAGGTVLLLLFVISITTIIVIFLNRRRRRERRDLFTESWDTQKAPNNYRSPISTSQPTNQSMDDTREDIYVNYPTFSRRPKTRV

T2: TIGIT (Homo sapiens (Human), UniProt Q495A1 22-244)
T2 sequence: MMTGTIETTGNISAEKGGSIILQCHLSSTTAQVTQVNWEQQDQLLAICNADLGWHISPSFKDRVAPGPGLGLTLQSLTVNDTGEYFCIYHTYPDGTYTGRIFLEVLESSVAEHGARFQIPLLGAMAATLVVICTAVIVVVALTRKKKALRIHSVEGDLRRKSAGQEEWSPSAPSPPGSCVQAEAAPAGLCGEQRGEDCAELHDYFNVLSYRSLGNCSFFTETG

T3: CD96 (UniProt P40200 22-585, limits assumed)
T3 construct: whole, on cells
T3 sequence (looked up): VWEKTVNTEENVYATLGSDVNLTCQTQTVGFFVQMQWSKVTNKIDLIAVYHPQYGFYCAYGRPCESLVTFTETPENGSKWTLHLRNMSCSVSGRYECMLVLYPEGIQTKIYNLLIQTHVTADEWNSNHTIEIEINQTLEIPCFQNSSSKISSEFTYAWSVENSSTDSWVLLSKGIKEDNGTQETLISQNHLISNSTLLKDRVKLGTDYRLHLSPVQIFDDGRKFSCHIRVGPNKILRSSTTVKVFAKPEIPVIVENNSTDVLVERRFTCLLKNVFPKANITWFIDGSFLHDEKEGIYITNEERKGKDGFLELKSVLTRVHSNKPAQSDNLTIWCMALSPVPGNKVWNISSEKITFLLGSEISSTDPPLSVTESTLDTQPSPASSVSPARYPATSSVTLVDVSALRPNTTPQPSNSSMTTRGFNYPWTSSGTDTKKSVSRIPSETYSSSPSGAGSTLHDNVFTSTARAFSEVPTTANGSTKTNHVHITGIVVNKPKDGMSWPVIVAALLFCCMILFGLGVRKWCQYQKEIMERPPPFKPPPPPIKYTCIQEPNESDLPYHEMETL


Columns and labels:
[1] = target: T1, CD226; assay: flow cytometry, Fc fusion at 100 nM, CD226-transfected cells
[2] = target: T2, TIGIT; assay: flow cytometry, Fc fusion at 100 nM, TIGIT-transfected cells
[3] = target: T3, CD96; assay: flow cytometry, Fc fusion at 100 nM, CD96-transfected cells
[4] = target: T4, CD28 endogenously expressed on Jurkat/IL2 reporter cells (human, UniProt P10747 19-220); assay: flow cytometry, Jurkat cells (CD28)
T4 construct: also called Jurkats (CD28)

[5] = target: T5, human PD-L1, full-length, on CHO cells (human, UniProt Q9NZQ7 19-290); assay: flow cytometry; PD-L1 MFI over CD28 MFI
T5 construct: also called huPD-L1; CD274
T5 sequence (Q9NZQ7 19-290): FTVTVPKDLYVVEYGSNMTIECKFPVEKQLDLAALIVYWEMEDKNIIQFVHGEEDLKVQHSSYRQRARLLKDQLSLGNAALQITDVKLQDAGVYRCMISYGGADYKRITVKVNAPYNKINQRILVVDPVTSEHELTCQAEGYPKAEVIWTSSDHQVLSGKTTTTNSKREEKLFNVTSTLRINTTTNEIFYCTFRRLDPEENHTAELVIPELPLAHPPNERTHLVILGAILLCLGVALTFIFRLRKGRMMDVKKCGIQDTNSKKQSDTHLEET

[6] = target: T6, human CTLA4 (CTLA-4), full-length, on CHO cells (human, UniProt P16410 36-223); assay: flow cytometry, CHO cells stably expressing CTLA4
T6 construct: also called huCTLA4
T6 sequence (P16410 36-223): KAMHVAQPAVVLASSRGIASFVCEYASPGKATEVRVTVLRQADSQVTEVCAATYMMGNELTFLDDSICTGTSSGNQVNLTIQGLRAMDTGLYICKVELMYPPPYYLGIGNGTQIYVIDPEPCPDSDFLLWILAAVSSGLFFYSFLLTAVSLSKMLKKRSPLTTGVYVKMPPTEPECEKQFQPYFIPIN

[7] = target: T5, human PD-L1, full-length, on CHO cells; assay: flow cytometry, CHO cells stably expressing PD-L1
[8] = target: T6, human CTLA4 (CTLA-4), full-length, on …; assay: flow cytometry, CHO/CTLA4 cells; MFI relative to WT CD80 ECD-Fc
[9] = target: T5, human PD-L1, full-length, on CHO cells; assay: flow cytometry, CHO/PD-L1 cells; MFI relative to WT CD80 ECD-Fc
[10] = target: T4, CD28 endogenously expressed on …; assay: flow cytometry, Jurkat cells (CD28); MFI relative to WT CD80 ECD-Fc

Binder	MFI at 100 nM [1] [MFI]	MFI at 100 nM [2] [MFI]	MFI at 100 nM [3] [MFI]	also measured
variant CD155 IgV-Fc S52L (Fc fusion, not shown: a dimerising Fc or GST) WPPPGTGDVVVQAPTQVPGFLGDSVTLPCYLQVPNMEVTHVSQLTWARHGELGSMAVFHQTQGPSYSESKRLEFVAARLGAELRNASLRMFGLRVEDEGNYTCLFVTFPQGSRSVDIWLRVL	2680	2220	–	–
variant CD155 IgV-Fc S42Q (Fc fusion, not shown: a dimerising Fc or GST) WPPPGTGDVVVQAPTQVPGFLGDSVTLPCYLQVPNMEVTHVQQLTWARHGESGSMAVFHQTQGPSYSESKRLEFVAARLGAELRNASLRMFGLRVEDEGNYTCLFVTFPQGSRSVDIWLRVL	2230	2070	2140	–
variant CD155 IgV-Fc Q62F (Fc fusion, not shown: a dimerising Fc or GST) WPPPGTGDVVVQAPTQVPGFLGDSVTLPCYLQVPNMEVTHVSQLTWARHGESGSMAVFHQTFGPSYSESKRLEFVAARLGAELRNASLRMFGLRVEDEGNYTCLFVTFPQGSRSVDIWLRVL	2570	2210	2760	–
variant CD155 IgV-Fc S42A/S52L/L104E/G111R (Fc fusion, not shown: a dimerising Fc or GST) WPPPGTGDVVVQAPTQVPGFLGDSVTLPCYLQVPNMEVTHVAQLTWARHGELGSMAVFHQTQGPSYSESKRLEFVAARLGAELRNASLRMFGLRVEDEGNYTCEFVTFPQRSRSVDIWLRVL	1890	2260	1610	–
variant CD155 IgV-Fc S42W/S52Q/V57L/Q62Y (Fc fusion, not shown: a dimerising Fc or GST) WPPPGTGDVVVQAPTQVPGFLGDSVTLPCYLQVPNMEVTHVWQLTWARHGEQGSMALFHQTYGPSYSESKRLEFVAARLGAELRNASLRMFGLRVEDEGNYTCLFVTFPQGSRSVDIWLRVL	2140	1960	1700	–
variant CD155 IgV-Fc S42N/L104Q/G111R (Fc fusion, not shown: a dimerising Fc or GST) WPPPGTGDVVVQAPTQVPGFLGDSVTLPCYLQVPNMEVTHVNQLTWARHGESGSMAVFHQTQGPSYSESKRLEFVAARLGAELRNASLRMFGLRVEDEGNYTCQFVTFPQRSRSVDIWLRVL	2310	2430	1960	–
variant CD155 IgV-Fc S52E (Fc fusion, not shown: a dimerising Fc or GST) WPPPGTGDVVVQAPTQVPGFLGDSVTLPCYLQVPNMEVTHVSQLTWARHGEEGSMAVFHQTQGPSYSESKRLEFVAARLGAELRNASLRMFGLRVEDEGNYTCLFVTFPQGSRSVDIWLRVL	2600	2660	1800	–
variant CD155 IgV-Fc S42C (Fc fusion, not shown: a dimerising Fc or GST) WPPPGTGDVVVQAPTQVPGFLGDSVTLPCYLQVPNMEVTHVCQLTWARHGESGSMAVFHQTQGPSYSESKRLEFVAARLGAELRNASLRMFGLRVEDEGNYTCLFVTFPQGSRSVDIWLRVL	2100	1910	1590	–
variant CD155 IgV-Fc Q62F/L104E/G111R (Fc fusion, not shown: a dimerising Fc or GST) WPPPGTGDVVVQAPTQVPGFLGDSVTLPCYLQVPNMEVTHVSQLTWARHGESGSMAVFHQTFGPSYSESKRLEFVAARLGAELRNASLRMFGLRVEDEGNYTCEFVTFPQRSRSVDIWLRVL	2040	1970	1520	–
variant CD155 IgV-Fc S42A/S52Q/L104Q/G111R (Fc fusion, not shown: a dimerising Fc or GST) WPPPGTGDVVVQAPTQVPGFLGDSVTLPCYLQVPNMEVTHVAQLTWARHGEQGSMAVFHQTQGPSYSESKRLEFVAARLGAELRNASLRMFGLRVEDEGNYTCQFVTFPQRSRSVDIWLRVL	2160	1810	1640	–
variant CD155 IgV-Fc S42W/S52R/Q62Y/L104Q (Fc fusion, not shown: a dimerising Fc or GST) WPPPGTGDVVVQAPTQVPGFLGDSVTLPCYLQVPNMEVTHVWQLTWARHGERGSMAVFHQTYGPSYSESKRLEFVAARLGAELRNASLRMFGLRVEDEGNYTCQFVTFPQGSRSVDIWLRVL	2300	1920	1760	–
variant CD155 IgV-Fc S42A/L104Q/G111R (Fc fusion, not shown: a dimerising Fc or GST) WPPPGTGDVVVQAPTQVPGFLGDSVTLPCYLQVPNMEVTHVAQLTWARHGESGSMAVFHQTQGPSYSESKRLEFVAARLGAELRNASLRMFGLRVEDEGNYTCQFVTFPQRSRSVDIWLRVL	1900	1920	1700	–
variant CD80 IgV-Fc V68M (Fc fusion, not shown: small tags and cut ends; a dimerising Fc or GST) VIHVTKEVKEVATLSCGHNVSVEELAQTRIYWQKEKKMVLTMMSGDMNIWPEYKNRTIFDITNNLSIMILALRPSDEGTYECVVLKYEKDAFKREHLAEVTLSVKAD	–	–	–	MFI at 33.3 nM [4]: 37.9 MFI; Ratio of PDL1:CD28 [5]: 3.1 ratio; MFI at 33.3 nM [6]: 568 MFI; MFI at 33.3 nM [7]: 118 MFI; Fold change to WT CD80 [8]: 0 fold; Fold change to WT CD80 [9]: 0.9 fold; Fold change to WT CD80 [10]: 0.1 fold
variant CD80 IgV-Fc V68M/L85Q (Fc fusion, not shown: small tags and cut ends; a dimerising Fc or GST) VIHVTKEVKEVATLSCGHNVSVEELAQTRIYWQKEKKMVLTMMSGDMNIWPEYKNRTIFDITNNLSIMILALRPSDEGTYECVVQKYEKDAFKREHLAEVTLSVKAD	–	–	–	MFI at 33.3 nM [4]: 91.7 MFI; Ratio of PDL1:CD28 [5]: 3.8 ratio; MFI at 33.3 nM [6]: 3290 MFI; MFI at 33.3 nM [7]: 347 MFI; Fold change to WT CD80 [8]: 0.1 fold; Fold change to WT CD80 [9]: 2.7 fold; Fold change to WT CD80 [10]: 0.1 fold

Continued, in another order:

MFI at 100 nM [1] [MFI]	MFI at 100 nM [2] [MFI]	MFI at 100 nM [3] [MFI]	Binder	also measured
2130	2430	2560	variant CD155 IgV-Fc S42W (Fc fusion, not shown: a dimerising Fc or GST) WPPPGTGDVVVQAPTQVPGFLGDSVTLPCYLQVPNMEVTHVWQLTWARHGESGSMAVFHQTQGPSYSESKRLEFVAARLGAELRNASLRMFGLRVEDEGNYTCLFVTFPQGSRSVDIWLRVL	–
6470	1950	1700	variant CD155 IgV-Fc S42L/S52Q/L104E (Fc fusion, not shown: a dimerising Fc or GST) WPPPGTGDVVVQAPTQVPGFLGDSVTLPCYLQVPNMEVTHVLQLTWARHGEQGSMAVFHQTQGPSYSESKRLEFVAARLGAELRNASLRMFGLRVEDEGNYTCEFVTFPQGSRSVDIWLRVL	–
2620	2530	1830	variant CD155 IgV-Fc Q62Y (Fc fusion, not shown: a dimerising Fc or GST) WPPPGTGDVVVQAPTQVPGFLGDSVTLPCYLQVPNMEVTHVSQLTWARHGESGSMAVFHQTYGPSYSESKRLEFVAARLGAELRNASLRMFGLRVEDEGNYTCLFVTFPQGSRSVDIWLRVL	–
2150	2400	1740	variant CD155 IgV-Fc S42N/S52Q/Q62F (Fc fusion, not shown: a dimerising Fc or GST) WPPPGTGDVVVQAPTQVPGFLGDSVTLPCYLQVPNMEVTHVNQLTWARHGEQGSMAVFHQTFGPSYSESKRLEFVAARLGAELRNASLRMFGLRVEDEGNYTCLFVTFPQGSRSVDIWLRVL	–
2640	2020	2320	variant CD155 IgV-Fc S42L/S52L/Q62F/L104Q (Fc fusion, not shown: a dimerising Fc or GST) WPPPGTGDVVVQAPTQVPGFLGDSVTLPCYLQVPNMEVTHVLQLTWARHGELGSMAVFHQTFGPSYSESKRLEFVAARLGAELRNASLRMFGLRVEDEGNYTCQFVTFPQGSRSVDIWLRVL	–
